Measured values: patent publication US20100330095A1 (U3 PHARMA, published 2010)

T1: human receptor tyrosine kinase AXL transcript variant 1 (human, UniProt P30530 26-894)
T1 construct: Overexpressed on RatI-AXL cl.2 and NIH3T3-AXL cl.7 fibroblasts (pLXSN-hAXL); endogenous on human cancer cell lines and HUVEC in the functional assays; also called hAXL; human AXL
T1 sequence: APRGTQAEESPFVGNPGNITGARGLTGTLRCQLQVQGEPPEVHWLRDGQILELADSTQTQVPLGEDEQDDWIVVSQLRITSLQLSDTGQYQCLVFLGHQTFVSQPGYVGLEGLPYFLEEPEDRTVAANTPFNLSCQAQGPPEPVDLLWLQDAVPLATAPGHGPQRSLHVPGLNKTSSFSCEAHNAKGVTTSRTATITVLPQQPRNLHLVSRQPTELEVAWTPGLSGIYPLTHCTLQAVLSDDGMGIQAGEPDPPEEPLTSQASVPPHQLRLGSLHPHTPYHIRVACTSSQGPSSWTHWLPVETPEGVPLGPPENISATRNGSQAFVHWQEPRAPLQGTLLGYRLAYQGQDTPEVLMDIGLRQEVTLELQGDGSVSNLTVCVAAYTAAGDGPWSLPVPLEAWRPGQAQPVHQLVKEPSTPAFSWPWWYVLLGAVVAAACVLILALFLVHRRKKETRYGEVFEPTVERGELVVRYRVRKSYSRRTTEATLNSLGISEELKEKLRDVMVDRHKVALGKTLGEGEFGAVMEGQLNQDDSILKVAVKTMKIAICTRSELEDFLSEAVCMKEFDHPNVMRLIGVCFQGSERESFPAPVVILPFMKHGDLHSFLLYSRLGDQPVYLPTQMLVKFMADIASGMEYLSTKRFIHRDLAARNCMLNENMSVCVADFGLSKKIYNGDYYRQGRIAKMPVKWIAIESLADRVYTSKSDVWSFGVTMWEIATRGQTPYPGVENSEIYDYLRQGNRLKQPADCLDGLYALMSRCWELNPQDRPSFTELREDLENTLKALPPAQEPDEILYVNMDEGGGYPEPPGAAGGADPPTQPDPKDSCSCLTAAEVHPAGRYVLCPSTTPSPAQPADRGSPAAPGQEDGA

T2: cynomolgus monkey AXL (cynomolgus monkey, UniProt P30530 26-894 (human entry))
T2 construct: Cloned from cynomolgus brain cDNA; transiently expressed on HEK293T cells (pcDNA3-cyAXL); also called cyAXL
T2 chain: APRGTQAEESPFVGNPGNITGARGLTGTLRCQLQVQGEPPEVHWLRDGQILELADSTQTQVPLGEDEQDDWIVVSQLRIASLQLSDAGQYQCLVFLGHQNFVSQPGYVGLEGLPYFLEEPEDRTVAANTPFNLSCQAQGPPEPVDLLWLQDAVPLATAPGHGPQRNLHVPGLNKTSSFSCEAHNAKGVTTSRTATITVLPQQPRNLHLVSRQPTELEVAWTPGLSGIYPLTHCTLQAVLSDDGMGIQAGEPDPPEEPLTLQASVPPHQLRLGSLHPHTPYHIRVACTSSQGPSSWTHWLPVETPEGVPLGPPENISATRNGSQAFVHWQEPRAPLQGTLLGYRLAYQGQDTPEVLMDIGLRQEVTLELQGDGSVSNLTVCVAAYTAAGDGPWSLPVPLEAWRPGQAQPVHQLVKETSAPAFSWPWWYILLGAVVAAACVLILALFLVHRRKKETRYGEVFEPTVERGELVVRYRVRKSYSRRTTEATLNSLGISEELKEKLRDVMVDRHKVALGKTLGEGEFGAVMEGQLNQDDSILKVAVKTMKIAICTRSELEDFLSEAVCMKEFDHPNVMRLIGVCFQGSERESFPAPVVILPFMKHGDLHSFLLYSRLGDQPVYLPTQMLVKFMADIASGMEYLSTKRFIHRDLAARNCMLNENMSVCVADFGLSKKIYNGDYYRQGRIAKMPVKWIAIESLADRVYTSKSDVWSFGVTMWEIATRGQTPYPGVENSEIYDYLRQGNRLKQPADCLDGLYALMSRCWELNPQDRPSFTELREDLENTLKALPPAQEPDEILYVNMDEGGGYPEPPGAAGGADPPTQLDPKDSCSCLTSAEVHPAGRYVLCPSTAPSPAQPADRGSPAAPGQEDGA


How the values were obtained:
[1] = target: T1, human receptor tyrosine kinase AXL …; assay: flow cytometry, NIH3T3-hAXL cells
cynomolgus monkey AXL = target: T2, cynomolgus monkey AXL; assay: flow cytometry, transfected HEK293T cells, 10 µg/ml
Description: FIG. 3. Flow cytometry analysis of cross-reactivity of rat-anti AXL antibodies with mouse and cynomolgus monkey AXL as well as human Mer and Sky. HEK293T fibroblasts were transiently transfected with pcDNA3, pcDNA3-hAXL, pcDNA3 mAXL, pcDNA3-cyAXL, pcDNA3-hMer, or pcDNA3-hSky. […] See text for details.
For FACS analysis, 2×10⁵ cells were harvested with 10 mM EDTA in PBS, washed once with FACS buffer (PBS, 3% FCS, 0.4% azide) and seeded on a 96 well round bottom plate. […] After incubation on ice for 1 h, cells were washed twice with chilled FACS buffer and resuspended with PE-conjugated donkey anti-rat (Jackson) secondary antibody diluted 1:50 in FACS buffer (100 μl/well) or PE-conjugated donkey anti-mouse secondary antibody for control. Protected from light, cells were incubated on ice for 30 min, washed twice with FACS buffer and analyzed using an Epics XL-MCL flow cytometer (Beckman Coulter).

| Binder | FACS shift [1] | binding result (cynomolgus monkey AXL) |
| --- | --- | --- |
| I 11B7 (antibody, V domains shown, rat hybridoma antibody, antagonistic) VH: EVQLQESGPGLVKPSQSLSLTCSVTGYSITSNYWGWIRKFPGDKMEWMGYITYSGSTSYNPSLKSRISITRDTSKNQFFLQLNSVTSEDTATYYCAITTFYYWGQGVMVTVSS VL: DIQMTQAPSSLPASLGDRVTITCRASQDIGNYLRWFQQKPGKSPRLMISGATNLAAGVPSRFSGSRSGSDYSLTISSLESEDMADYYCLQSKESPWTFGGGTKLELK | 36.2 | binds |
| I 10D12 (antibody, V domains shown, rat hybridoma antibody, antagonistic; subclass G1) VH: EVQLQESGPGLVKPSQSLSLTCSVTGYSITSNYWGWIRKFPGNKMEWMGYITNSGGTAYNPSLKSRISITRDTSKNQFFLQLNSVIPEDSATYFCSRTPWDWGQGVMVTVSS VL: DIQMTQAPSSLPASLGDRVTIACRASQDIGNYLRWFQQKPGKSPRLMISGATNLAAGVPSRFSGSRSGSDYSRTISSLESEDMADYYCLQSKESPWTFGGGTKLELK | 37.5 | binds |
| III 11D5 (antibody, rat IgG2a, V domains shown, rat hybridoma antibody, antagonistic) VH: EVQLQESGPGLVKPSQSLSLTCSVTGYSITSNYWGWIRKFPGNKMEWIGHITNSGNTTYNPSLKSRISISRDTSRNQFFLQLNSVTTEDTATYYCAKGAFDYWGQGVMVTVSS VL: DIQMTQSPSSMSTSLGDRVTITCRASQDIGNYLSWFQQKVGKSPRRMIYGAIKLAVGVPSRFSGSRSGSDYSLTISSLESEDMAIYYCLQYIQFPLTFGSGTKLELK | 8.9 | binds |
